The text below walks through data of patent US20150299252A1.

In test [1] the target is lectin SNA1 from Sambucus nigra (Sambucus nigra) (UniProt Q41358).
Test [2] has as its target lectin MAA from Maackia amurensis (Maackia amurensis) (UniProt P0DKL3). Nature of the test: solid-phase competition; fetuin against SVH1C for MAA.
For test [3] the target is unchanged. Nature of the test: solid-phase competition; fetuin against 100 pmoles of SVH1C on streptavidin for peroxidase-conjugated MAA.
Test [4] concerns the target T1, lectin MAA from Maackia amurensis (Maackia amurensis), P0DKL3.
T1 chain: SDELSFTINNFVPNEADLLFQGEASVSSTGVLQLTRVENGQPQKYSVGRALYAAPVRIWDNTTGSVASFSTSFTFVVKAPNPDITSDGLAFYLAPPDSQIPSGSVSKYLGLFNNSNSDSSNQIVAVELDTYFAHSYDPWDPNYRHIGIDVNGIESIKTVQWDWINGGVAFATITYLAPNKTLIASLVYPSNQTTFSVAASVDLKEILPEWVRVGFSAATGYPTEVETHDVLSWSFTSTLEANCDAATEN
The test can be described thus: solid-phase assay, peptide titrated into wells containing bound lectin.

In test [5] the target is lectin SNA1 from Sambucus nigra (Sambucus nigra), Q41358. The description is as above.

Where no end group is shown, it is not given here.

Sequence of lectin SNA1 from Sambucus nigra (Sambucus nigra) (Q41358 29-289 limits assumed, chain 1 of 2): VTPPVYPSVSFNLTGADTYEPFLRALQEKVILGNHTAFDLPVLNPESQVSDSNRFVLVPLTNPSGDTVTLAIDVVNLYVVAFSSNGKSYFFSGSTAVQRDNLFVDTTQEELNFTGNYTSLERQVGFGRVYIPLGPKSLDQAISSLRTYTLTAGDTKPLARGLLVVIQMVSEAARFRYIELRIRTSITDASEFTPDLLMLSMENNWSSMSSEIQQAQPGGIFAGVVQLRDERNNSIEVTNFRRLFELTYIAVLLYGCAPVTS
Sequence of lectin SNA1 from Sambucus nigra (Sambucus nigra) (Q41358 309-570 limits assumed, chain 2 of 2): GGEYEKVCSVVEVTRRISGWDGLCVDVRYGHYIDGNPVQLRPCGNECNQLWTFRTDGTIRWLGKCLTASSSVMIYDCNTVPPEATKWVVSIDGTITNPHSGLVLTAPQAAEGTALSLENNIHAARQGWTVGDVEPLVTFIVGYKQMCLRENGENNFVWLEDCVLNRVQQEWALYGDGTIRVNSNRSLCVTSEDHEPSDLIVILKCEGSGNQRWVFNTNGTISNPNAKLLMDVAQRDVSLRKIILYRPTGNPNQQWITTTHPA
Sequence of lectin SNA1 from Sambucus nigra (Sambucus nigra), Q41358 (Q41358 29-289 limits assumed, chain 1 of 2): as the sequence (Q41358 29-289 limits assumed, chain 1 of 2) above
Sequence of lectin SNA1 from Sambucus nigra (Sambucus nigra), Q41358 (Q41358 309-570 limits assumed, chain 2 of 2): as the sequence (Q41358 309-570 limits assumed, chain 2 of 2) above

In the case of fetuin (from UniProt P12763 19-359), the amount of fetuin giving essentially complete inhibition (pmoles of fetuin per well) in test [1] and in test [3] was 500 each time. The percent inhibition at 100 pmoles fetuin per well in test [1] and in test [3] was 50% throughout. In addition, the percent inhibition at a 5-fold molar excess of fetuin over peptide in test [2] was determined as 90%.

B1: biotinylated SVH1C (quadravalent, C-terminal ε-biotinyl-lysine amide) (peptide)
peptide: NPSHPLSGGGGS
chain: KKKK
modifications: not fully specified (some residues, C-terminus); also: quadravalent: four peptide copies on lysine scaffold
As for B1, the amount of peptide at saturation in test [4] and in test [5] was 100 pmol in each case.
